The results in this text go back to patent publication US5792629A, “Isolated DNA encoding novel protease inhibitory polypeptide” (Mochida Pharmaceutical Co., Ltd., priority 1990, dated 1998).

Assay [1] deals with T1, human plasma kallikrein (Homo sapiens, UniProt P03952).
T1 construct: purchased Sigma Chemical Co
Briefly: Human plasma kallikrein-inhibiting activity, substrate S-2302. The following applies: for human plasma kallikrein-inhibiting activity: purified sample, various concentrations, remaining activity vs buffer control (FIG. 17A-C). In kind it is biochemical. As to the method:
The purified sample obtained in Example 1-(5) was dissolved in 100 μl of distilled water. Concentration of this solution was determined based on its bovine trypsin-inhibiting activity using the aforementioned UTI as a standard. The solution was then diluted to various concentration levels with 0.1% BSA/150 mM NaCl/50 mM Tris-HCl buffer (pH 8.3) for use in the activity measurement. The UTI was also diluted in the same manner. Using a synthetic compound S-2302 (Daiichi Pure Chemicals Co., Ltd.) as a substrate, human plasma kallikrein-inhibiting activities of the diluted test samples and the positive control were measured in accordance with the method of Ohno et al. (Ohno,H. et al., Thromb. Res., vol.19, pp.579-588, 1980) as follows.
0.26 U/ml solution of human plasma kallikrein (Sigma Chemical Co.) was diluted with 0.1% BSA/150 mM NaCl/50 mM Tris-HCl buffer (pH 8.3) to prepare 0.08 U/ml of plasma kallikrein solution. 4 mM solution of S-2302 was prepared by dissolving it in distilled water and the solution was further diluted with 0.1% BSA/150 mM NaCl/50 mM Tris-HCl buffer (pH 8.3) to prepare 2 mM solution of S-2302.
Next, 25 μl of the test sample or positive control was mixed with 75 μl of 0.1% BSA/150 mM NaCl/50 mM Tris-HCl buffer (pH 8.3) and 50 μl of the plasma kallikrein solution. After incubation at 37° C. for 10 minutes, 50 μl of the S-2302 solution was added to the mixture to start the reaction. The reaction was carried out at 37° C. for 8 minutes and then stopped by adding 25 μl of 50% acetic acid solution to the reaction mixture. Thereafter, absorbance at 405 nm was measured using a spectrophotometer.
In this instance, in order to eliminate absorbance of various solutions in the reaction mixture a blank solution was prepared by mixing 50 μl of the plasma kallikrein solution with 25 μl of 50% acetic acid and then with 25 μl of each test sample or the positive control, 75 μl of 0.1% BSA/150 mM NaCl/50 mM Tris-HCl buffer (pH 8.3) and with 50 μl of the S-2302 solution.
In this figure, human plasma kallikrein remaining activity was expressed by percentage based on the absorbance of a control reaction mixture in which 25 μl of 0.1% BSA/150 mM NaCl/50 mM Tris-HCl buffer (pH 8.3) was used instead of the test sample or the positive control.

Assay [2] deals with T2, Human neutrophil elastase (Homo sapiens, UniProt P08246).
T2 construct: purchased CALBIOCHEM Type V
T2 sequence (P08246 30-267): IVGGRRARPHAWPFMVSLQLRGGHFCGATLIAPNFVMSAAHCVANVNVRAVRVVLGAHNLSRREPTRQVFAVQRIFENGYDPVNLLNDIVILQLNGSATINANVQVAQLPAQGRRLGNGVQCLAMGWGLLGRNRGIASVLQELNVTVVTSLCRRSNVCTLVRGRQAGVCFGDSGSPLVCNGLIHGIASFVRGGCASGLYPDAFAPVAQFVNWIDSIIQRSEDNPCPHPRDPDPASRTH
Put plainly: Human elastase-inhibiting activity, substrate STANA. In kind it is biochemical. The following applies: purified sample, various concentrations; remaining activity vs buffer control (FIG. 15A-C). The procedure: The purified sample obtained in Example 1-(5) was dissolved in 100 μl of distilled water. Concentration of this solution was determined based on its bovine trypsin-inhibiting activity using the UTI as a standard. The solution was then diluted to various concentration levels with 0.1% BSA/27 mM CaCl2 /133 mM Tris-HCl buffer (pH 7.5) for use in the activity measurement. The aforementioned UTI was also diluted in the same manner. Human elastase-inhibiting activities in the test samples and the positive control were measured in accordance with the method of Ogawa et al. (Ogawa, M. et al., Res. Commun. Chem. Pathol. Pharmacol., vol.55, pp.271-274, 1987) using a synthetic compound STANA (Peptide Institute Inc.) as a substrate.
Human neutrophil elastase (Type V, CALBIOCHEM) was dissolved in 27 mM CaCl2 /[…] Tris-HCl buffer (pH 7.5) to a concentration of 100 μg/ml and the solution was further diluted with 0.1% BSA/27 mM CaCl2 /133 mM Tris-HCl buffer (pH 7.5) to prepare 4 μg/ml of elastase solution. 100 mM solution of STANA was prepared by dissolving it in N-methyl-2-pyrrolidone and the solution was further diluted with 0.1% BSA/27 mM CaCl2 /133 mM Tris-HCl buffer (pH 7.5) to prepare 20 mM of STANA solution.
Next, 50 μl of the test sample or positive control was mixed with 50 μl of the elastase solution and 50 μl of 0.1% BSA/27 mM CaCl2 /133 mM Tris-HCl buffer (pH 7.5). After incubation at 37° C. for 10 minutes, 50 μl of the STANA solution was added to the mixture to start the reaction. The reaction was carried out at 37° C. for 20 minutes and then stopped by adding 50 μl of 50% acetic acid solution to the reaction mixture. Thereafter, absorbance at 405 nm was measured using a spectrophotometer.
In this instance, in order to eliminate absorbance of various solutions in the reaction mixture, a blank solution was prepared by mixing 50 μl of the elastase solution with 50 μl of 50% acetic acid and then with 50 μl of each test sample or the positive control, 50 μl of 0.1% BSA/27 mM CaCl2 /133 mM Tris-HCl buffer (pH 7.5) and with 50 μl of the STANA solution.
In this figure, human elastase remaining activity was expressed by percentage based on the absorbance of a control reaction mixture in which 50 μl of 0.1% BSA/27 mM CaCl2 /133 mM Tris-HCl buffer (pH 7.5) was used instead of the test sample or the positive control.

T1 sequence (P03952 20-638): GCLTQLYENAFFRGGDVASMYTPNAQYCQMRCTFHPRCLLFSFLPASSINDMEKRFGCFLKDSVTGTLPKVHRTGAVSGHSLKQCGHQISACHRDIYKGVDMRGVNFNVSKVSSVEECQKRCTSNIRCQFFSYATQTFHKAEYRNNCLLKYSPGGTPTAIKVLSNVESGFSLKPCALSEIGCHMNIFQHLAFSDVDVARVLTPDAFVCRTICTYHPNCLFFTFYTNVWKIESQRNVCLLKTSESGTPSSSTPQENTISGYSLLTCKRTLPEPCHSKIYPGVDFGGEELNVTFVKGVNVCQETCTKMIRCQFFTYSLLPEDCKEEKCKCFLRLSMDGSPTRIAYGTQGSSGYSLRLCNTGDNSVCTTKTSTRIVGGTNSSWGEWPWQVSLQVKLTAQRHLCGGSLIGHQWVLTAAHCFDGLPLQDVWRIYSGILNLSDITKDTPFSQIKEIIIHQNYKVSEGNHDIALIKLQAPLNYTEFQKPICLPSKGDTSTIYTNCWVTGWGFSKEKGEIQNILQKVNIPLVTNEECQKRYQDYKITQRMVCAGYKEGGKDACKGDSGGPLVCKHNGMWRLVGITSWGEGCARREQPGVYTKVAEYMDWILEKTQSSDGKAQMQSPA

“CC51: polypeptide defined by the amino acid sequence of formula 1, purified from culture supernatant of E. coli JE5505 (pM560) (CNLPIVRGPCRAFIQLWAFDAVKGKCVLFPYGGCQGNGNKFYSEKECREYC)”: the “human plasma kallikrein-inhibiting activity” value in assay [1] was “activity was found”. In assay [2], the human elastase-inhibiting activity result was “activity was found”.

B1: TL66: polypeptide defined by formula 8; known enzyme-digested fragment of urinary trypsin inhibitor, made in E. coli JE5505 (pM551) (protein)
chain: TVAACNLPIVRGPCRAFIQLWAFDAVKGKCVLFPYGGCQGNGNKFYSEKECREYCGVPGDGDEELL
Regarding B1, in assay [1], the “human plasma kallikrein-inhibiting activity” value is on record as “activity was found”. In addition, the human elastase-inhibiting activity result in assay [2] is “activity was found”.

B2: TN70: polypeptide defined by the amino acid sequence of formula 3, purified from culture supernatant of E. coli JE5505 (pM552) (protein)
chain: TVAACNLPIVRGPCRAFIQLWAFDAVKGKCVLFPYGGCQGNGNKFYSEKECREYCGVPGDGDEELLRFSN
Regarding B2, the “human plasma kallikrein-inhibiting activity” value in assay [1] is on record as “activity was found”. For the same molecule, the human elastase-inhibiting activity result in assay [2] is “activity was found”.

B3: UTI: urinary trypsin inhibitor purified from human urine (Mochida Pharmaceutical), used as positive control (protein)
chain: AVLPQEEEGSGGGQLVTEVTKKEDSCQLGYSAGPCMGMTSRYFYNGTSMACETFQYGGCMGNGNNFVTEKECLQTCRTVAACNLPIVRGPCRAFIQLWAFDAVKGKCVLFPYGGCQGNGNKFYSEKECREYCGVPGDGDEELLRFSN
modifications: glycoprotein (sugar moieties, as the filing says in general of UTI)
For the molecule B3, in assay [1] (experiments of the inventors, stated in the background), the plasma kallikrein-inhibiting activity entry is reported as “no plasma kallikrein-inhibiting activity”. Besides, the “human plasma kallikrein-inhibiting activity” value in assay [1] is recorded as “activity was not found”. In assay [2], the human elastase-inhibiting activity result is given as “activity was found”.
